Data set [1] deals with T1, GraA (antitoxin; His-GraA2) (Pseudomonas putida (PaW85?)) (UniProt Q88MI6).
T1 sequence: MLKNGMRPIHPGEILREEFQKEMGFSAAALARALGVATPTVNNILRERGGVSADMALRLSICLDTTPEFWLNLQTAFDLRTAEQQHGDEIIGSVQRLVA
Put plainly: ITC. The conditions noted are these: ITC: 50 mM Tris pH 8.0, 250 mM NaCl, 2 mM β-mercaptoethanol (TCEP in purification for ITC), 25 °C; EMSA: 5 µM DNA, 30 min at room temperature, 6% native PAGE ….

The target in data set [2] is untagged antitoxin GraA co-expressed with His-tagged GraT (Pseudomonas putida). As to the kind of experiment: crystal structure; crystal of the co-expressed and co-purified hisGraT2A2 complex, 2.2 Å, data at 100 K.
Data set [3] deals with N-terminally His-tagged antitoxin GraA (Pseudomonas putida). Put plainly: crystal structure; crystal of hisGraA2, 1.96 Å, data at 100 K.
For data set [4] the target is unchanged. As to the kind of experiment: crystal structure; crystal of hisGraA2 with the 33 bp graTA operator DNA, 3.8 Å, data at 100 K.
The target is the same in data set [5]. As to the kind of experiment: native MS; GraA2 (20 μM dimer) mixed with operator DNA duplex at 1:1, 2:1 and 4:1, 40 mM ammonium acetate pH 7, nano-electrospray.
Data set [6] concerns the target T2, GraA (antitoxin; His-GraA2) (Pseudomonas putida, UniProt Q88MI6 1-99).
T2 sequence: T1 sequence
Put plainly: ITC; N.D., binding too weak; ITC: 50 mM Tris pH 8.0, 250 mM NaCl, 2 mM β-mercaptoethanol (TCEP in purification for ITC), 25 °C; EMSA: 5 µM DNA, 30 min at room temperature, 6% native PAGE in TBE on ice. The following applies: protein: recombinant; tags: N-terminal His6; chain copies: 4. For orientation: Isothermal titration calorimetry measures the heat released or taken up as one component is titrated into another.

In data set [7] the target is T2, GraA (antitoxin; His-GraA2). As to the kind of experiment: ITC; macroscopic; ITC: 50 mM Tris pH 8.0, 250 mM NaCl, 2 mM β-mercaptoethanol (TCEP in purification for ITC), 25 °C; EMSA: 5 µM DNA, 30 min at room temperature, 6% native PAGE in TBE on ice. The following applies: protein: recombinant; tags: N-terminal His6; chain copies: 4.
Data set [8] addresses T3, GraT (toxin) in GraT2A2 complex;GraA (untagged) in GraT2A2 complex (Pseudomonas putida;Pseudomonas putida, UniProt Q88MI5;Q88MI6 1-92;1-99, |).
T3 sequence 1: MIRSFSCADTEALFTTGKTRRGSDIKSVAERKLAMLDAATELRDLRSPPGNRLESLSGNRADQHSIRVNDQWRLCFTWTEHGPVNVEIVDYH
T3 sequence 2: T1 sequence
The data set is described as above. The conditions noted are these: protein: recombinant;recombinant; tags: N-terminal His6;none; chain copies: 2;2.

Data set [9] concerns the target T2, GraA (antitoxin; His-GraA2). Put plainly: ITC; macroscopic, 2 dimers per DNA; text also gives 3.1e13; ITC: 50 mM Tris pH 8.0, 250 mM NaCl, 2 mM β-mercaptoethanol (TCEP in purification for ITC), 25 °C; EMSA: 5 µM DNA, 30 min at room temperature, 6% native PAGE in TBE on ice. The conditions noted are these: protein: recombinant; tags: N-terminal His6; chain copies: 4.

Changes are numbered by the printed parent chain.

With “AAATTAACGAATAACGTTATTCGTTAATTT (double strand) [Left side mirrored]”, in data set [1], the Ka was determined as 5.2e+12 M^-2. The stoichiometry N is a count of units in the complex or per binding partner. “untagged antitoxin GraA co-expressed with His-tagged GraT (natural protein)” came in with a stoichiometry N in data set [2] of 2. With “AGCTGAATGCTTAACGTTAAGCATTCAGCT (double strand) [Right side mirrored]”, the Ka in data set [1] was determined as 3.5e+12 M^-2. On to “N-terminally His-tagged antitoxin GraA (natural protein)”, for which the stoichiometry N in data set [3], in data set [4] and in [5] was 2 each time.

B1: Central palindrome (dsDNA)
DNA 1: GAATAACGTTAAG
DNA 2: CTTAACGTTATTC
For the molecule B1, the binding result in data set [6] is listed as “no binding”.

B2: Variant 3 (dsDNA)
DNA 1: AAATTAACGAATAGTGTTAAGCATTCAGCT
DNA 2: AGCTGAATGCTTAACACTATTCGTTAATTT
With B2, the Ka in [7] was 3.9e+11 M^-2.

B3: Variant 1 (dsDNA)
DNA 1: AAATTAACGAATAACGGGCCGCATTCAGCT
DNA 2: AGCTGAATGCGGCCCGTTATTCGTTAATTT
For B3, the Ka in [7] worked out at 2.1e+09 M^-2.

B4: Upstream half (dsDNA)
DNA 1: AAATTAACGAATAACGTTAAG
DNA 2: CTTAACGTTATTCGTTAATTT
With B4, the binding result in data set [6] is “no binding”.

B5: Variant 2 (dsDNA)
DNA 1: AAATTAACGAAGCCCGTTAAGCCGGCAGCT
DNA 2: AGCTGCCGGCTTAACGGGCTTCGTTAATTT
On to B5, for which, in data set [7], the Ka is 4.7e+11 M^-2.

B6: Downstream half (dsDNA)
DNA 1: AATAACGTTAAGCATTCAGCT
DNA 2: AGCTGAATGCTTAACGTTATT
Consider B6, for which the binding result in data set [6] is “no binding”.

B7: Variant 5 (dsDNA)
DNA 1: AAATTAACGCCGAACGTTAAGCATTCAGC
DNA 2: GCTGAATGCTTAACGTTCGGCGTTAATTT
With B7, in [7], the Ka was 7.1e+12 M^-2.

B8: Variant 4 (dsDNA)
DNA 1: AAAGGCACGAATAACGTTAAGCATTCAGCT
DNA 2: AGCTGAATGCTTAACGTTATTCGTGCCTTT
For B8, in data set [7], the Ka worked out at 4.3e+13 M^-2.

B9: graTA operator wild type 33 bp (dsDNA)
DNA 1: AAATTAACGAATAACGTTAAGCATTCAGCTCAT
DNA 2: ATGAGCTGAATGCTTAACGTTATTCGTTAATTT
For B9, the values for the Ka in [8] and in [9] were under 1e+07 M^-2 and 3e+13 M^-2, respectively.

B10: Variant 6 (dsDNA)
DNA 1: B5 DNA 1 with G12T, C13A, C14A
DNA 2: B5 DNA 2 with G17T, G18T, C19A
As to B10, the Ka in data set [7] was 1.5e+13 M^-2.
